B1: 4-O-[(2-OH)Ac-SChgQSS-Sar]-dAc-VIN (peptide)
peptide: XXQSSX
modifications: N-terminal hydroxyacetyl ((2-OH)Ac); Chg at 2; sarcosine at 6, esterified to the 4-O of des-acetylvinblastine
B2: 4-O-(Ac-4-trans-L-HypSSChgQ-S(dS)-4-trans-L-Hyp)-dAc-VIN (peptide)
peptide: XSSXQSXX
modifications: N-terminal acetyl; 4-trans-L-hydroxyproline at 1 and 8; Chg at 4; D-Ser at 7; C-terminus esterified to the 4-O of des-acetylvinblastine
B3: 4-O-(Ac-4-trans-L-HypSSChgQSS-(d)-Pro)-(dAc)-VIN (peptide)
peptide: XSSXQSSP
modifications: N-terminal acetyl; 4-trans-L-hydroxyproline at 1; Chg at 4; D-Pro at 8, esterified to the 4-O of des-acetylvinblastine

This test addresses free prostate specific antigen (PSA) (human, UniProt P07288 25-261). In words: cell-based or functional assay.
B1: the “Time to 50% Substrate Cleavage by York PSA (Min); cell gives percent cleaved at 1 hour” value came out at 4 % cleaved at 1 hour. In the case of B2, the “Time to 50% Substrate Cleavage by York PSA (Min); cell gives percent cleaved at 1 hour” value was found to be 12 % cleaved at 1 hour. As for B3, the figure is 34 % cleaved at 1 hour.

For the origin of these results see US20040081659A1 (MERCK, published 2004).
